Experimental data taken from paper PMC12475115, “Arabidopsis MYB47 and MYB95 transcription factors regulate jasmonate-inducible ER-body formation”.

T1: GST-MYB47 (Arabidopsis thaliana, UniProt Q6R0C2 1-267)
T1 sequence: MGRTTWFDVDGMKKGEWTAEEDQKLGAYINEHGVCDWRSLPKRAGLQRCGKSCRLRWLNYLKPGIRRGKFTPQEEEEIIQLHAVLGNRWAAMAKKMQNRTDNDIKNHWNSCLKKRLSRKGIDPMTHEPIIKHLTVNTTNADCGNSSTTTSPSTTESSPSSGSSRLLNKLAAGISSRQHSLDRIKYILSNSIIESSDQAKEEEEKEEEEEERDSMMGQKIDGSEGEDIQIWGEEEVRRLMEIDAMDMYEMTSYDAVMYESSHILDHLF

T2: GST-MYB95 (Arabidopsis thaliana, UniProt Q7DSY5 1-271)
T2 sequence: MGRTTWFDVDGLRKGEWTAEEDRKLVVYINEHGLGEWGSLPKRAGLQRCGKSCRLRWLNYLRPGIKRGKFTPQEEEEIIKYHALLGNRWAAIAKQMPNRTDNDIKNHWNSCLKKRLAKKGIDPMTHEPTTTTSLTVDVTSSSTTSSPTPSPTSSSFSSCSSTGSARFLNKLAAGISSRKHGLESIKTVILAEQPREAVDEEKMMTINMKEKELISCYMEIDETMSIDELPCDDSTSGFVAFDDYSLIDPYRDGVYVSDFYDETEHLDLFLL

B1: pTSA1-m2 (box2 mutated) (dsDNA)
DNA 1: GAATGAAATCCACGTTTAACCCCTTTACAACGGTTT
DNA 2: AAACCGTTGTAAAGGGGTTAAACGTGGATTTCATTC
B2: pTSA1 probe (dsDNA)
DNA 1: GAATGAAATCCACGTTTAAGTTAGTTACAACGGTTT
DNA 2: AAACCGTTGTAACTAACTTAAACGTGGATTTCATTC
B3: pTSA1-m1 (box1 mutated) (dsDNA)
DNA 1: GAATGAAATCTTTCCCCAAGTTAGTTACAACGGTTT
DNA 2: AAACCGTTGTAACTAACTTGGGGAAAGATTTCATTC

How the values were obtained:
GST-MYB47 [1] = target: T1, GST-MYB47; assay: competition EMSA; 20-fold excess over pTSA1 probe; 10 mM Tris-HCl pH 7.5, 50 mM KCl, 1 mM DTT, 2.5% glycerol, 5 mM MgCl2, 0.1% IGEPAL CA-630, 0.05 ug/uL poly(dI-dC); 500 ng protein, probe 5 uM; competitor 20 min then probe 30 min at room temperature; details: protein: recombinant; tags: N-terminal GST (pDEST15); blunt
GST-MYB95 [2] = target: T2, GST-MYB95; assay: as above; details: protein: recombinant; tags: N-terminal GST (pDEST15); blunt
GST-MYB47 [3] = target: T1, GST-MYB47; assay: EMSA; 5 mM Mg2+; 10 mM Tris-HCl pH 7.5, 50 mM KCl, 1 mM DTT, 2.5% glycerol, 5 mM MgCl2, 0.1% IGEPAL CA-630, 0.05 ug/uL poly(dI-dC); 500 ng protein, probe 5 uM; competitor 20 min then probe 30 min at room temperature; details: protein: recombinant; tags: N-terminal GST (pDEST15); label: 5' biotin on strand 1 as probe; blunt
GST-MYB95 [4] = target: T2, GST-MYB95; assay: as above; details: protein: recombinant; tags: N-terminal GST (pDEST15); label: 5' biotin on strand 1 as probe; blunt

Binder | binding result (GST-MYB47 [1]) | binding result (GST-MYB95 [2]) | binding result (GST-MYB47 [3]) | binding result (GST-MYB95 [4])
B1 | no binding | no binding | – | –
B2 | – | – | binds | binds
B3 | binds | binds | – | –
